Molecular target: GST-tagged p63RhoGEF (UniProt Q86VW2)
Test: pull-down

Chain of UniProt Q86VW2 (Q86VW2 whole entry): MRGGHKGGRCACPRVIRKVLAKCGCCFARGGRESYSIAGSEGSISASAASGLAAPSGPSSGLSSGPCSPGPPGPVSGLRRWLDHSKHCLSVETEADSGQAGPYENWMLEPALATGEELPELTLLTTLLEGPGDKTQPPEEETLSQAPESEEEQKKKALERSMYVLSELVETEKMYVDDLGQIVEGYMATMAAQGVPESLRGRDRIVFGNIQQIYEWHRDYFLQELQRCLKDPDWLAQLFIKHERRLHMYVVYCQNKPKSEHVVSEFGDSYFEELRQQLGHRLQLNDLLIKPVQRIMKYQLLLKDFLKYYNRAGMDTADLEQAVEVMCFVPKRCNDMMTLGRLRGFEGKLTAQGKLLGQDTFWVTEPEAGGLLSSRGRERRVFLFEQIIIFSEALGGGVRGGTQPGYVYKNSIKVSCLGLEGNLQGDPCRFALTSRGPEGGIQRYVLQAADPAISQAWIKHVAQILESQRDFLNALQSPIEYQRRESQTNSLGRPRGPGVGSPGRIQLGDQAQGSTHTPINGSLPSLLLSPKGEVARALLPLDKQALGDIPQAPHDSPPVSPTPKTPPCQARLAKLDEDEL

FLAG-MLK3^KR (kinase-deficient, ATP-binding point mutant of MLK3) (from UniProt Q16584 1-847) (enzyme)
% associated MLK3/input MLK3 after overnight incubation: 44%

FLAG-MLK3^KR/T277D,S281D (from UniProt Q16584 1-847) (enzyme)
amount in GST-p63RhoGEF complexes relative to FLAG-MLK3^KR: 2 fold

— publication PMC2603627
